This note sets out measurements from publication PMC3537886 (Nature structural & molecular biology, 2012).

The target of test [1] is biotinylated soluble leucine-zippered HLA-DO with αP10aA (bio-szDOv), beta chain with C-terminal Avitag (human) (UniProt P06340). Description: BLI. On the technique in general: BLI is a label-free optical method that tracks binding on a fibre tip over time.
In test [2] the target is soluble HLA-DM (sDM), wild type (human, UniProt P28067;P28068). In words: enzyme inhibition kinetics.

Regarding “sDM mutant αR98E,R194E (from UniProt P28067;P28068) (complex)”, the binding affinity relative to the wild type (fold of the wild-type affinity) in test [1] turned out to be 0.0025.

B1: soluble HLA-DO Ig-fusion protein (sDO-Fc) (Fc fusion)
chain 1: TKADHMGSYGPAFYQSYGASGQFTHEFDEEQLFSVDLKKSEAVWRLPEFGDFARFDPQGGLAGIAAIKAHLDILVERSNRSRAINVPPRVTVLPKSRVELGQPNILICIVDNIFPPVINITWLRNGQTVTEGVAQTSFYSQPDHLFRKFHYLPFVPSAEDVYDCQVEHWGLDAPLLRHWELQVPIPPPDAME
chain 2: TDSPEDFVIQAKADCYFTNGTEKVQFVVRFIFNLEEYVRFDSDVGMFVALTKLGQPDAEQWNSRLDLLERSRQAVDGVCRHNYRLGAPFTVGRKVQPEVTVYPERTPLLHQHNLLHCSVTGFYPGDIKIKWFLNGQEERAGVMSTGPIRNGDWTFQTVVMLEMTPELGHVYTCLVDHSSLLSPVSVEWRAQSEYSWRK
B1: the Ki (usually a measure of affinity in units of concentration, obtained from inhibition or displacement) in test [2] was 290 ± 20 nM.
